T1: human BCMA on the surface of cell lines (NCI-H929, MM.1S, OPM-2, RPMI-8226, Daudi, Raji, MOLP-8, U266) (human, UniProt Q02223 1-184)
T1 sequence: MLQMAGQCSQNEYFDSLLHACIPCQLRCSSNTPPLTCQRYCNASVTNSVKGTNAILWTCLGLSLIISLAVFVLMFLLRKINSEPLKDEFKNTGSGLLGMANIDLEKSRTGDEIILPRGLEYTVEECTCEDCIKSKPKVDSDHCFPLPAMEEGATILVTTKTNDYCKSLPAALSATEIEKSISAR

T2: human BCMA-MFC (extracellular domain of human BCMA with C-terminal mFc tag) (human)
T2 construct: also called hBCMA.mFc
T2 chain: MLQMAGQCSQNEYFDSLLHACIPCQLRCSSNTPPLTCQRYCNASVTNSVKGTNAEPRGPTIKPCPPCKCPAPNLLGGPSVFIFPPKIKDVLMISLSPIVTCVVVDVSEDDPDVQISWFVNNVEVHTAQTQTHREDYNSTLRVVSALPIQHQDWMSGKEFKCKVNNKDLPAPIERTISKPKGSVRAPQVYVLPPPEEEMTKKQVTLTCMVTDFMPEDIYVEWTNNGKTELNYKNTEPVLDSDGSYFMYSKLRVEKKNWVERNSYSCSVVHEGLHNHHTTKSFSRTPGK

T3: mouse BCMA-MFC (BCMA with C-terminal mFc tag) (mouse)
T3 construct: Tested at a single concentration of 30 nM; also called mBCMA.mFc
T3 chain: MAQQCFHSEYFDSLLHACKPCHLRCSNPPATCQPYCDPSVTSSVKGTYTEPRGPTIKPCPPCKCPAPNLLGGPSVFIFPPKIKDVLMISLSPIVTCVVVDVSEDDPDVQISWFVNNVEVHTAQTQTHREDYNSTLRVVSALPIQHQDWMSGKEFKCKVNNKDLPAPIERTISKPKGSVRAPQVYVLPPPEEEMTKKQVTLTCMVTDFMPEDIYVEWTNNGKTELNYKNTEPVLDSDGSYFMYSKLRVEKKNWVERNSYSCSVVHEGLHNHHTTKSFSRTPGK

B1: bsAb25441D bispecific antibody (REGN5458), anti-BCMA x anti-CD3 (bispecific antibody, human IgG4 S228P, kappa)
heavy 1: EVQLVESGGGLVQPGGSLRLSCAASGFTFSNFWMTWVRQAPGKGLEWVANMNQDGSEKYYVDSVKGRFTISRDNAKSSLYLQMNSLRAEDTAVYYCARDREYCISTSCYDDFDYWGQGTLVTVSSASTKGPSVFPLAPCSRSTSESTAALGCLVKDYFPEPVTVSWNSGALTSGVHTFPAVLQSSGLYSLSSVVTVPSSSLGTKTYTCNVDHKPSNTKVDKRVESKYGPPCPPCPAPPVAGPSVFLFPPKPKDTLMISRTPEVTCVVVDVSQEDPEVQFNWYVDGVEVHNAKTKPREEQFNSTYRVVSVLTVLHQDWLNGKEYKCKVSNKGLPSSIEKTISKAKGQPREPQVYTLPPSQEEMTKNQVSLTCLVKGFYPSDIAVEWESNGQPENNYKTTPPVLDSDGSFFLYSRLTVDKSRWQEGNVFSCSVMHEALHNHYTQKSLSLSLGK
heavy 2: EVQLVESGGGLVQPGRSLRLSCAASGFTFDDYSMHWVRQAPGKGLEWVSGISWNSGSKGYADSVKGRFTISRDNAKNSLYLQMNSLRAEDTALYYCAKYGSGYGKFYHYGLDVWGQGTTVTVSSASTKGPSVFPLAPCSRSTSESTAALGCLVKDYFPEPVTVSWNSGALTSGVHTFPAVLQSSGLYSLSSVVTVPSSSLGTKTYTCNVDHKPSNTKVDKRVESKYGPPCPPCPAPPVAGPSVFLFPPKPKDTLMISRTPEVTCVVVDVSQEDPEVQFNWYVDGVEVHNAKTKPREEQFNSTYRVVSVLTVLHQDWLNGKEYKCKVSNKGLPSSIEKTISKAKGQPREPQVYTLPPSQEEMTKNQVSLTCLVKGFYPSDIAVEWESNGQPENNYKTTPPVLDSDGSFFLYSRLTVDKSRWQEGNVFSCSVMHEALHNRFTQKSLSLSPGK
light: not shown
notes: Anti-BCMA arm from mAb21581, anti-CD3 arm and common light chain from mAb7221G; also called bsAb25441D9; mAb25441D
B2: bsAb25442D bispecific antibody (REGN5459), anti-BCMA x anti-CD3 (bispecific antibody, human IgG4 S228P, kappa)
heavy 1: EVQLVESGGGLVQPGGSLRLSCAASGFTFSNFWMTWVRQAPGKGLEWVANMNQDGSEKYYVDSVKGRFTISRDNAKSSLYLQMNSLRAEDTAVYYCARDREYCISTSCYDDFDYWGQGTLVTVSSASTKGPSVFPLAPCSRSTSESTAALGCLVKDYFPEPVTVSWNSGALTSGVHTFPAVLQSSGLYSLSSVVTVPSSSLGTKTYTCNVDHKPSNTKVDKRVESKYGPPCPPCPAPPVAGPSVFLFPPKPKDTLMISRTPEVTCVVVDVSQEDPEVQFNWYVDGVEVHNAKTKPREEQFNSTYRVVSVLTVLHQDWLNGKEYKCKVSNKGLPSSIEKTISKAKGQPREPQVYTLPPSQEEMTKNQVSLTCLVKGFYPSDIAVEWESNGQPENNYKTTPPVLDSDGSFFLYSRLTVDKSRWQEGNVFSCSVMHEALHNHYTQKSLSLSLGK
heavy 2: EVQLVESGGGLVQPGRSLRLSCAASGFTFDDYSMHWVRQAPGKGLEWVSGISWNSGSIGYADSVKGRFTISRDNAKNSLYLQMNSLRAEDTALYYCAKYGSGYGKFYYYGMDVWGQGTTVTVSSASTKGPSVFPLAPCSRSTSESTAALGCLVKDYFPEPVTVSWNSGALTSGVHTFPAVLQSSGLYSLSSVVTVPSSSLGTKTYTCNVDHKPSNTKVDKRVESKYGPPCPPCPAPPVAGPSVFLFPPKPKDTLMISRTPEVTCVVVDVSQEDPEVQFNWYVDGVEVHNAKTKPREEQFNSTYRVVSVLTVLHQDWLNGKEYKCKVSNKGLPSSIEKTISKAKGQPREPQVYTLPPSQEEMTKNQVSLTCLVKGFYPSDIAVEWESNGQPENNYKTTPPVLDSDGSFFLYSRLTVDKSRWQEGNVFSCSVMHEALHNRFTQKSLSLSPGK
light: not shown
notes: Anti-BCMA arm from mAb21581, anti-CD3 arm and common light chain from mAb7221G20; also called mAb25442D; mAb25442D-A647

Tests used:
[1] = molecular target: T1, human BCMA on the surface of cell lines …; assay: cell-based or functional assay
[2] = molecular target: T1, human BCMA on the surface of cell lines …; assay: cell-based or functional assay; remark: listed apart in the source
[3] = molecular target: T2, human BCMA-MFC (extracellular domain of …); assay: SPR Biacore, 25 C, mAb captured via anti-hFc
Method: (§1) The CM5 Biacore sensor surface was derivatized by amine coupling with a monoclonal mouse anti-human Fc antibody (GE, #BR-1008-39) to capture purified anti-BCMA mAbs and anti-BCMA×anti-CD3 bispecific mAbs. All Biacore binding studies were performed in a buffer composed of 0.01M HEPES pH 7.4, 0.15M NaCl, 3 mM EDTA, 0.05% v/v Surfactant P20 (HBS-ET running buffer). […] Antigen samples were then injected over the anti-BCMA and anti-BCMA×anti-CD3 bispecific mAbs captured surfaces at a flow rate of 30 μL/minute. Antibody-reagent association was monitored for 5 minutes while dissociation in HBS-ET running buffer was monitored for 10 minutes. All of the binding kinetics experiments were performed at 25° C. Kinetic association (kₐ) and dissociation (kd) rate constants were determined by fitting the real-time sensorgrams to a 1:1 binding model using Scrubber 2.0c curve fitting software. Binding dissociation equilibrium constants (KD) and dissociative half-lives (t1/2) were calculated from the kinetic rate constants as: […]

[4] = molecular target: T4, monkey BCMA-MMH (monkey BCMA with C-terminal myc-myc-hexahistidine tag) (monkey); assay: SPR Biacore, 25 C, mAb captured via anti-hFc
T4 construct: Monomeric antigen; also called mfBCMA.mmh
Method: as §1

[5] = molecular target: T5, monkey BCMA-MFC (monkey BCMA with C-terminal mFc tag) (monkey); assay: SPR Biacore, 25 C, mAb captured via anti-hFc
T5 construct: also called mfBCMA.mFc
T5 sequence (chain, as listed by the source limits assumed): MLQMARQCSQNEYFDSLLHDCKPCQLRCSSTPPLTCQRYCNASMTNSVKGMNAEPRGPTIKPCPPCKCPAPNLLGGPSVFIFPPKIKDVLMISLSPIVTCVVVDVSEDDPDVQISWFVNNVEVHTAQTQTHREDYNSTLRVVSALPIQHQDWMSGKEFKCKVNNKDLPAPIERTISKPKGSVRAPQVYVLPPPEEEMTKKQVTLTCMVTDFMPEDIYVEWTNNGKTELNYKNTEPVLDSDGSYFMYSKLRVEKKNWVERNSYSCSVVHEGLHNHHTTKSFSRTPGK
Method: as §1

[6] = molecular target: T3, mouse BCMA-MFC (BCMA with C-terminal …); assay: SPR Biacore, 25 C, mAb captured via anti-hFc
Method: as §1

[7] = molecular target: T6, human CD3 on cells (Jurkat cells, primary human CD8+ T cells) (human, UniProt P07766 23-207; P04234 22-171; P20963 22-164; P09693 23-182); assay: flow cytometry, Jurkat cells (human CD3), median EC50, n=5
T6 construct: CD3 complex as part of the TCR on T cells; also called hCD3; Jurkat-hCD3
T6 sequence (P07766 23-207 limits assumed, chain 1 of 4): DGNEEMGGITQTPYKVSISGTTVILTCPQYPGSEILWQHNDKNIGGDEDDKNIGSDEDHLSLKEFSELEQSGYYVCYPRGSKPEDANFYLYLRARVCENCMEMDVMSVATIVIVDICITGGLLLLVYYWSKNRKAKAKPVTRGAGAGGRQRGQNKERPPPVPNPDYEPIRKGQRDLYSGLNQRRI
T6 sequence (P04234 22-171 limits assumed, chain 2 of 4): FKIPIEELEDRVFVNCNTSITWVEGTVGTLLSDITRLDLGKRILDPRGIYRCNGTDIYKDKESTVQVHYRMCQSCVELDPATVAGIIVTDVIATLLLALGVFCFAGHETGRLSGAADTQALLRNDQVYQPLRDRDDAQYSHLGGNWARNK
T6 sequence (P20963 22-164 limits assumed, chain 3 of 4): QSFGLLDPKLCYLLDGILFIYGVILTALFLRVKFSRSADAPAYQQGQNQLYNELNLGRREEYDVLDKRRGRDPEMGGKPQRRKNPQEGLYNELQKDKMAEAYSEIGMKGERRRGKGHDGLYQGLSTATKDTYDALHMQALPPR
T6 sequence (P09693 23-182 limits assumed, chain 4 of 4): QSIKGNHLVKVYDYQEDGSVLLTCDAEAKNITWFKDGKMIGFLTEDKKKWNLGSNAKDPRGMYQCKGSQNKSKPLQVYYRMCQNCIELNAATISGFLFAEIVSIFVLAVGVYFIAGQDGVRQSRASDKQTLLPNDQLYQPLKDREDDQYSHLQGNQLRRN
Method: (§2) Flow cytometric analysis was utilized to determine binding of BCMA×CD3 bispecific antibodies to human and cynomolgus CD3 (Jurkat cells, mfCD3 engineered Jurkat cells, primary human CD8+ and cynomolgus CD8+ T cells). Briefly, 1e05 cells/well were incubated in the presence of FACS wash with block (PBS+1% filtered FBS+5% mouse serum) with a serial dilution of BCMA×CD3 and control antibodies for 30 minutes on ice. After incubation, the cells were washed twice with cold FACS wash (PBS+1% filtered FBS) and bound antibody was detected by incubating with Alexa647-conjugated anti-human secondary antibody on ice for an additional 30 minutes. Wells containing no antibody or secondary only were used as a control. For the detection of monkey and human T cells, a cocktail of human and cynomolgus cross-reactive antibodies to CD4, CD8 and CD16 was added to the anti-human secondary. After incubation, cells were washed, re-suspended in 200 μL cold PBS containing 1% filtered FBS and analyzed by flow cytometry on a BD FACS Canto II. Cells were gated by FSC-H by FSC-A to select singlet events, followed by side and forward scatters to select for live events. For monkey T cells, additional gating on CD8+/CD16-cells was performed.
(§3) EC50 values for FACS binding were calculated using 4-parameter non-linear regression analysis in Prism software.

[8] = molecular target: T6, human CD3 on cells (Jurkat cells, …); assay: flow cytometry, primary human CD8+ T cells, median EC50, n=1
Method: as §2, §3

| Binder | EC50, Jurkat/NFATLuc reporter activation with Daudi cells [1] [nM] | EC50, Jurkat/NFATLuc reporter activation with MM1-S cells [1] [nM] | EC50, Jurkat/NFATLuc reporter activation with NCI-H929 cells [1] [nM] | EC50, Jurkat/NFATLuc reporter activation with OPM-2 cells [1] [nM] | EC50, Jurkat/NFATLuc reporter activation with MOLP-8 cells [2] [nM] | EC50, Jurkat/NFATLuc reporter activation with RPMI-8226 cells [2] [nM] | EC50, Jurkat/NFATLuc reporter activation with Raji cells [2] [nM] | 30 nM hBCMA.mFc Bind (RU) [3] [RU] | Kd [3] [nM] | t1/2 [3] [h] | 90 nM mfBCMA.mmh Bind (RU) [4] [RU] | Kd [4] [nM] | t1/2 [4] [min] | 30 nM mfBCMA.mFc Bind (RU) [5] [RU] | Kd [5] [nM] | t1/2 [5] [h] | 30 nM mBCMA.mFc Bind (RU) [6] [RU] | binding result [6] | EC50 [7] [nM] | EC50 [8] [nM] | also measured |
| --- | --- | --- | --- | --- | --- | --- | --- | --- | --- | --- | --- | --- | --- | --- | --- | --- | --- | --- | --- | --- | --- |
| B1 | 2.1 | 1.2 | 0.68 | 0.66 | 1.4 | 0.61 | 1.6 | 107 | ≤ 0.0223 | ≤ 19.2 | 14.8 | 49.9 | 1.3 | 108 | 0.167 | 2.19 | 2.7 | no binding (tested: 30 nM) | 15 | 32 | – |
| B2 | 7.9 | 4.4 | 2.7 | 2.6 | 11 | 2.6 | 7.4 | 96.8 | ≤ 0.0223 | ≤ 19.2 | 12.7 | 38.8 | 1.3 | 97 | 0.148 | 2.69 | 2.4 | no binding (tested: 30 nM) | 558 | 4710 | koff [3]: ≤ 1e-05 s⁻¹; kon [3]: 449000 M⁻¹ s⁻¹; koff [4]: 0.00864 s⁻¹; kon [4]: 223000 M⁻¹ s⁻¹; koff [5]: 7.15e-05 s⁻¹; kon [5]: 482000 M⁻¹ s⁻¹ |

Reference: patent US20210206865A1 (Regeneron, published 2021)
